{
  "source": "patent US20160115222A1",
  "about": "(published 2016)",
  "key": {"[1]": {"biological_target": "T1, rProtein A (HiTrap rProtein A FF column) (Staphylococcus aureus, UniProt P38507 37-327)", "T1 construct": "also called SpA", "assay": "affinity chromatography"}, "[2]": {"biological_target": "T2, SpA on S. aureus Newman strain cells (Staphylococcus aureus (Newman strain), UniProt A0A0H3K686 37-477)", "T2 construct": "also called wild type S. aureus Newman", "assay": "whole cell ELISA"}, "[3]": {"biological_target": "T3, Recombinant SpA (Biovision), recombinant 4-domain SpA (Staphylococcus aureus, UniProt P38507 37-269)", "T3 construct": "domain: SpA IgBP domains 1-4; also called SpA 1-4; SpA1-4", "assay": "double immunodiffusion in agarose gel"}, "[4]": {"biological_target": "T4, Sbi-E (amino acids 28-266) (Staphylococcus aureus, UniProt Q2FVK5 28-266)", "T4 construct": "range 28-266", "assay": "double immunodiffusion in agarose gel"}},
  "data": [
    {"binder": "Anti-RSV variant antibody MAB5 (antibody, human IgG1, kappa, V domains shown, also called anti-RSV heavy chain constant region variant; control anti-RSV variant antibody) VH: QVTLRESGPALVKPTQTLTLTCTFSGFSLSTAGMSVGWIRQPPGKALEWLADIWWDDKKHYNPSLKDRLTISKDTSKNQVVLKVTNMDPADTATYYCARDMIFNFYFDVWGQGTTVTVSS VL: DIQMTQSPSTLSASVGDRVTITCSASSRVGYMHWYQQKPGKAPKLLIYDTSKLASGVPSRFSGSGSGTEFTLTISSLQPDDFATYYCFQGSGYPFTFGGGTKLEIKR", "values": [
      {"measurement": "binding result", "setting": "[1]", "result": "no binding"},
      {"measurement": "binding result", "setting": "[2]", "result": "no binding"},
      {"measurement": "binding result", "setting": "[3]", "result": "no binding (tested: 1 mg/ml (from paragraph 493, not on the sheet))"},
      {"measurement": "binding result", "setting": "[4]", "result": "no binding (tested: 1 mg/ml (from paragraph 493, not on the sheet))"}
    ]}
  ]
}
